Like-named read-outs stand apart in the source and are kept apart here.
Key:
rat Y4 receptor (rat) = rat Y4 receptor (rat) (UniProt Q63447); experiment: 125I-PYY displacement, COS-7 membranes
[1] = target: rat hypothalamic Y5 receptor (rat) (UniProt Q63634); experiment: 125I-PYY displacement, COS-7 membranes
[2] = target: rat hypothalamic membranes (NPY/PYY binding sites); experiment: 125I-PYY3-36 displacement, rat hypothalamic membranes
[3] = target: rat hypothalamic membranes (NPY/PYY binding sites); experiment: 125I-PYY displacement, rat hypothalamic membranes
[4] = target: canine Y5 receptor (canine) (UniProt O62729); experiment: 125I-PYY displacement, COS-7 membranes
Sequence of canine Y5 receptor (canine) (O62729 other isoform, or with tags, fused parts or gaps): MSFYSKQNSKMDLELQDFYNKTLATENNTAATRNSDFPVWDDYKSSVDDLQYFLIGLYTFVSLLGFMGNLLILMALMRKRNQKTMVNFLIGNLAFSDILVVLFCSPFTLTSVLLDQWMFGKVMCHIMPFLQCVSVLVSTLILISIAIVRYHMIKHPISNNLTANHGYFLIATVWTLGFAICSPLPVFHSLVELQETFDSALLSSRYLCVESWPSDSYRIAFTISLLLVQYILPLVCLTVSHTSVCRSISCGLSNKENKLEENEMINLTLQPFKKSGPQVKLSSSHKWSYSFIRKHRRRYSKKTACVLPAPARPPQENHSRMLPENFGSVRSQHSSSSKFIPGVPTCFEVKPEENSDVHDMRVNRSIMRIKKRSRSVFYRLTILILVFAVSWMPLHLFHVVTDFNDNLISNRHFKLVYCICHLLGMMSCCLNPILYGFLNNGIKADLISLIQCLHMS

[5] = target: human Y4 receptor (human) (UniProt P50391); experiment: 125I-PYY displacement, COS-7 membranes
Sequence of human Y4 receptor (human) (P50391 whole entry): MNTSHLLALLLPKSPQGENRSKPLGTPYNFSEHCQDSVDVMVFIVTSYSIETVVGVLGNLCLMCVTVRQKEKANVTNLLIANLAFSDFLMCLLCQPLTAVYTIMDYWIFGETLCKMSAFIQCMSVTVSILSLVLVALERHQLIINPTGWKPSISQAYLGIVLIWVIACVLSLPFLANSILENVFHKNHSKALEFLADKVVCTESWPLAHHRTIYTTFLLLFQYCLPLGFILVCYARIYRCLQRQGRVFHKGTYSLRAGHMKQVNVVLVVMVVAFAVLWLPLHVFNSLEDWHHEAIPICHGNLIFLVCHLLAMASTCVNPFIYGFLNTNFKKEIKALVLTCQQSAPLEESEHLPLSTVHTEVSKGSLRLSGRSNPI

[6] = target: rat hypothalamic Y5 receptor (rat) (UniProt Q63634); experiment: 125I-PYY displacement, COS-7 membranes; remark: listed apart in the source
[7] = target: human Y2 receptor (human) (UniProt P49146); experiment: 125I-PYY displacement, COS-7 membranes
Sequence of human Y2 receptor (human) (P49146 whole entry): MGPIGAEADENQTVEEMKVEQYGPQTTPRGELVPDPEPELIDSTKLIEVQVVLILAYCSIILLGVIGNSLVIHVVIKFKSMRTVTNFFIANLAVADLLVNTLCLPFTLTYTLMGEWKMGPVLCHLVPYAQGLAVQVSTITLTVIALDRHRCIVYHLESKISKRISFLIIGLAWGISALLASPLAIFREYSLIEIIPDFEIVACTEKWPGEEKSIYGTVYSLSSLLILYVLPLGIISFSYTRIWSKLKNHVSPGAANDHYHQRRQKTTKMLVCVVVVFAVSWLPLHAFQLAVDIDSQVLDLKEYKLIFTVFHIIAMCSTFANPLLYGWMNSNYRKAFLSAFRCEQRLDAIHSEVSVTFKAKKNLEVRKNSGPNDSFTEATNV

[8] = target: human Y1 receptor (human) (UniProt P25929); experiment: 125I-PYY displacement, COS-7 membranes
Sequence of human Y1 receptor (human) (P25929 whole entry): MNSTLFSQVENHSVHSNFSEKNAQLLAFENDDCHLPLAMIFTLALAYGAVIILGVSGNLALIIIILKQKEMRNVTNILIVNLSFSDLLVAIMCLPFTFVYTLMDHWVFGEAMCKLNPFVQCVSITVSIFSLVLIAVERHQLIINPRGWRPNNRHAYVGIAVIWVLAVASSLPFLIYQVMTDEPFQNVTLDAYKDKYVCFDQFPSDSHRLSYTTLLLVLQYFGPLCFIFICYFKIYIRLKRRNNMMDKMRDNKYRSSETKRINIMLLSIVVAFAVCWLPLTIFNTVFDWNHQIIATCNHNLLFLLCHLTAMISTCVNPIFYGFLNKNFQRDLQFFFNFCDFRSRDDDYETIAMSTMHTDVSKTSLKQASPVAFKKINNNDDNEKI

[9] = target: rat hypothalamic Y5 receptor (rat) (UniProt Q63634); experiment: cell-based or functional assay
[10] = target: human Y5 receptor (human) (UniProt Q15761); experiment: 125I-PYY3-36 displacement, LM(tk-) membranes
Sequence of human Y5 receptor (human) (Q15761 other isoform, or with tags, fused parts or gaps): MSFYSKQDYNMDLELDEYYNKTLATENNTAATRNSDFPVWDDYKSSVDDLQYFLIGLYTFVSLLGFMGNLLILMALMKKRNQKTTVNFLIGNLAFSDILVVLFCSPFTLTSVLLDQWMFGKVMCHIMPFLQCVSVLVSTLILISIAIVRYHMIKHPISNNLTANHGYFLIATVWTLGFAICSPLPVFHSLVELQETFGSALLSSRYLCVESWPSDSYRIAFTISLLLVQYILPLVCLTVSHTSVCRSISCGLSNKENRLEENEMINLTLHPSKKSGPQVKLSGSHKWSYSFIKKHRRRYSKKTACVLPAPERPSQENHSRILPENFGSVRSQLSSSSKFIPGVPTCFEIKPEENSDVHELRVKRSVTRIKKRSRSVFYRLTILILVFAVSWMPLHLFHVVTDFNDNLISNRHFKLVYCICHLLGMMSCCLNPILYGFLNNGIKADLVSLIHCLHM

[11] = target: human Y5 receptor (human) (UniProt Q15761); experiment: 125I-PYY displacement, COS-7 membranes
[12] = target: rat hypothalamic Y5 receptor (rat) (UniProt Q63634); experiment: 125I-PYY displacement, COS-7 membranes; remark: listed apart in the source
rat Y2 receptor (rat) = rat Y2 receptor (rat) (UniProt Q9ERC0); experiment: 125I-PYY displacement, COS-7 membranes
Sequence of rat Y2 receptor (rat) (Q9ERC0 entry or part of it): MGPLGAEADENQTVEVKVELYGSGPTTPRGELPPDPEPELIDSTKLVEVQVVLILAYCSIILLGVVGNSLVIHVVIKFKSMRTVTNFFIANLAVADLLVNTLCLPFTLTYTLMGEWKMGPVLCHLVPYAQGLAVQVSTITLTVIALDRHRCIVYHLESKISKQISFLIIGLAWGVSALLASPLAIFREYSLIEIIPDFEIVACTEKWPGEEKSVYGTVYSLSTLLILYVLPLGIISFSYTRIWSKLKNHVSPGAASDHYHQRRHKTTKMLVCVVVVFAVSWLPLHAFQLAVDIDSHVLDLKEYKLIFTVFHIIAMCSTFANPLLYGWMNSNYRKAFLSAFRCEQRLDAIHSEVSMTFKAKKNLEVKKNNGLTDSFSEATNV

rat Y1 receptor (rat) = rat Y1 receptor (rat) (UniProt P21555); experiment: 125I-PYY displacement, COS-7 membranes
Sequence of rat Y1 receptor (rat) (P21555 whole entry): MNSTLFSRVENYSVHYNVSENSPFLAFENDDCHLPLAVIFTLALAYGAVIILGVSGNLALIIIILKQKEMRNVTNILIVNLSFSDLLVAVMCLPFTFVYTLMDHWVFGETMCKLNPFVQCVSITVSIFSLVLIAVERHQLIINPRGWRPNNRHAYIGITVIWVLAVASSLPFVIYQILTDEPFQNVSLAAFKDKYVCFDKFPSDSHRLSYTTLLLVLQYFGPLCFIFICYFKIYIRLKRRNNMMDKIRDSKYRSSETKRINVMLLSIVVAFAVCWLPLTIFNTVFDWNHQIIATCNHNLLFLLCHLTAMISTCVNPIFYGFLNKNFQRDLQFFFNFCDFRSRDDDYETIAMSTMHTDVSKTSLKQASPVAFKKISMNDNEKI

[13] = target: human Y5 receptor (human) (UniProt Q15761); experiment: 125I-PYY displacement, LM(tk-) membranes
[14] = target: rat hypothalamic membranes (NPY/PYY binding sites); experiment: 125I-PYY displacement, rat hypothalamic membranes, low-affinity part
[15] = target: rat hypothalamic membranes (NPY/PYY binding sites); experiment: 125I-PYY3-36 displacement, rat hypothalamic membranes, low-affinity part
[16] = target: rat hypothalamic membranes (NPY/PYY binding sites); experiment: 125I-PYY3-36 displacement, rat hypothalamic membranes, high-affinity part
[17] = target: rat hypothalamic membranes (NPY/PYY binding sites); experiment: 125I-PYY displacement, rat hypothalamic membranes, high-affinity part
[18] = target: human Y5 receptor (human) (UniProt Q15761); experiment: 125I-PYY displacement, COS-7 membranes; remark: listed apart in the source
[19] = target: human Y5 receptor (human) (UniProt Q15761); experiment: cell-based or functional assay

Sequence of salmon PP (peptide) (P69092 whole entry): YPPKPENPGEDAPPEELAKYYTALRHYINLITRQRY
Sequence of rat hypothalamic Y5 receptor (rat) (Q63634 other isoform, or with tags, fused parts or gaps): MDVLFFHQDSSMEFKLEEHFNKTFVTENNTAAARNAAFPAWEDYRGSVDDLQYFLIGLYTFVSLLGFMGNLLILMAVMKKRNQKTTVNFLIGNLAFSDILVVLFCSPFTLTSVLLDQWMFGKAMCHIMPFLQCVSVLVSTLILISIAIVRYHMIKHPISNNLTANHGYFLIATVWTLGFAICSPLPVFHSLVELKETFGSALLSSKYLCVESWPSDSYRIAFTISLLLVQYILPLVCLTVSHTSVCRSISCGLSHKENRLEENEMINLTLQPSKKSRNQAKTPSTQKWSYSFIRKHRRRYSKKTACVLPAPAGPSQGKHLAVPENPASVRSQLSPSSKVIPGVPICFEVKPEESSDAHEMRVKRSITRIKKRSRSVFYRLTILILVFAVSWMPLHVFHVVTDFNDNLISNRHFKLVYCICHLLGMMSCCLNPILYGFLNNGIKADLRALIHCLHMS
Sequence of rat Y4 receptor (rat) (Q63447 whole entry): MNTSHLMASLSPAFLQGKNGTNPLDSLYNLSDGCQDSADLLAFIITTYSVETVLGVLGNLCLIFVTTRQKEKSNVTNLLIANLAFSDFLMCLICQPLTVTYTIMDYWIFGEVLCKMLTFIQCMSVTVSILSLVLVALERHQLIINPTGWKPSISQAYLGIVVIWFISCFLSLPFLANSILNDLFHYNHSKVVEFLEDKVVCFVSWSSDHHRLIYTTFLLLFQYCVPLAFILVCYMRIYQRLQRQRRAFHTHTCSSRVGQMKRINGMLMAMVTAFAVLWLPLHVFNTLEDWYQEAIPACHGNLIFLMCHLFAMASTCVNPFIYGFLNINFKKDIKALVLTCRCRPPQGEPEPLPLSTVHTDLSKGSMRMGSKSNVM

## rat/human NPY, P01303 29-64 (peptide; C-terminal amide; other documents disagree on this pair)
Rat Y4 receptor (rat)
  Ki: 1.7 nM

## W(nor-L)RF-amide (peptide)
[1]
  Ki: 8700 nM

## human NPY2-36, P01303 30-64 (peptide; other documents disagree on this pair)
Rat Y4 receptor (rat)
  Ki: 5 nM

## human NPY2-36 (from UniProt P01303 30-64) (peptide)
[2]
  % NPY-produced displacement: 100%
  IC50: 1.2 nM
[3]
  % NPY-produced displacement: 100%
  IC50: 2.3 nM

## porcine C2-NPY (peptide)
[4]
  Ki: 300 nM
[5]
  Ki: 120 nM
[6]
  Ki: 470 nM
[7]
  Ki: 3.5 nM
[8]
  Ki: 79 nM
[9]
  EC50, inhibition of forskolin-stimulated cAMP accumulation, 293 cells: 240 nM
[10]
  Ki: 220 nM
[11]
  Ki: 370 nM
[12]
  Ki: 260 nM
Rat Y2 receptor (rat)
  Ki: 2.6 nM
Rat Y1 receptor (rat)
  Ki: 140 nM
Rat Y4 receptor (rat)
  Ki: 22 nM
[13]
  Ki: 260 nM

## human PYY (from UniProt P10082 29-64) (peptide)
[2]
  % NPY-produced displacement: 100%
  IC50: 0.29 nM
[3]
  % NPY-produced displacement: 100%

## porcine NPY3-36, P01304 12-45 (peptide; other documents disagree on this pair)
Rat Y4 receptor (rat)
  Ki: 36 nM

## human [Leu^31, Pro^34]NPY (from UniProt P01303 29-64) (peptide)
[14]
  % NPY-produced displacement: 56%
  IC50: 340 nM
[15]
  % NPY-produced displacement: 73%
  IC50: 250 nM
[16]
  % NPY-produced displacement: 27%
  IC50: 0.38 nM
[17]
  % NPY-produced displacement: 44%
  IC50: 0.21 nM

## rat/human NPY (from UniProt P01303 29-64) (peptide)
[2]
  % NPY-produced displacement: 100%
[3]
  % NPY-produced displacement: 100%
  IC50: 0.82 nM

## human PP (from UniProt P01298 30-65) (peptide)
[3]
  % NPY-produced displacement: 20%

## salmon PP (peptide)
[18]
  Ki: 0.46 nM
[5]
  Ki: 3.2 nM
[6]
  Ki: 0.31 nM
[7]
  Ki: 0.17 nM
[8]
  Ki: 0.11 nM
[19]
  % inhibition relative to human NPY, cAMP, LM(tk-) cells: 96%
  EC50, inhibition of forskolin-stimulated cAMP accumulation, LM(tk-) cells: 4.5 nM
[9]
  EC50, inhibition of forskolin-stimulated cAMP accumulation, 293 cells: 0.92 nM
[10]
  Ki: 0.63 nM
[11]
  Ki: 0.27 nM
Rat Y2 receptor (rat)
  Ki: 0.16 nM
[1]
  Ki: 0.33 nM
Rat Y1 receptor (rat)
  Ki: 0.3 nM
Rat Y4 receptor (rat)
  Ki: 3 nM

Reference: patent publication US6713265
